Source: paper PMC10850787

Legend:
[1] = molecular target: PaFtsH2-6xHis (FtsH2 of Pseudomonas aeruginosa SG17M clone C, tLST genomic island) (Pseudomonas aeruginosa SG17M); test: negative-stain electron microscopy; detergent-solubilised enzyme at 0.4 mg/ml in storage buffer with 0.1% Igepal, 2% uranyl acetate; 3D reconstruction with C6 symmetry, about 22 A
[2] = molecular target: PaFtsH2-6xHis (FtsH2 of Pseudomonas aeruginosa SG17M clone C, tLST genomic island) (Pseudomonas aeruginosa SG17M); test: SEC; analytical Superdex 200 (increase) 3.2/3.0 gel filtration column in Buffer PD (50 mM Tris-HCl pH 8.0, 80 mM NaCl, 10% glycerol, 2 mM beta-mercaptoethanol, 0.1% NP-40); native mass from molecular weight standards; hexamer plus NP-40 micelles
[3] = molecular target: PaFtsH1-6xHis (FtsH1 of Pseudomonas aeruginosa SG17M clone C) (Pseudomonas aeruginosa SG17M); test: negative-stain electron microscopy; detergent-solubilised enzyme at 0.4 mg/ml in storage buffer with 0.1% Igepal, 2% uranyl acetate; 3D reconstruction with C6 symmetry, about 22 A
[4] = molecular target: PaFtsH1-6xHis (FtsH1 of Pseudomonas aeruginosa SG17M clone C) (Pseudomonas aeruginosa SG17M); test: SEC; analytical Superdex 200 (increase) 3.2/3.0 gel filtration column in Buffer PD (50 mM Tris-HCl pH 8.0, 80 mM NaCl, 10% glycerol, 2 mM beta-mercaptoethanol, 0.1% NP-40); native mass from molecular weight standards; hexamer plus NP-40 micelles

Row | stoichiometry N [1] | stoichiometry N [2] | stoichiometry N [3] | stoichiometry N [4] | Substance
1 | 6 | 6 |  |  | PaFtsH2-6xHis (FtsH2 of Pseudomonas aeruginosa SG17M clone C, tLST genomic island) (enzyme)
2 |  |  | 6 | 6 | PaFtsH1-6xHis (FtsH1 of Pseudomonas aeruginosa SG17M clone C) (enzyme)
